Source: patent US20230304019, “DNA APTAMER, PHARMACEUTICAL COMPOSITION COMPRISING SAME, METHOD FOR INHIBITING CATALYTIC ABILITY OF TXNDC5, AND METHOD FOR PREVENTING OR TREATING ORGAN FIBROSIS” (CHI-HUA FUNDATION, published 2023)

Tests used:
[1] = molecular target: T1, TXNDC5 (Mus musculus, UniProt Q91W90 Q91W90:34-417); assay: magnetic nanoparticle (MARAS) pulldown with q-PCR, nonlinear regression; conditions: tags: Ni-column purified, baculovirus/insect cells, Sino Biological; double stem-loop (predicted)
Description: (§1) For further determining the binding efficiency of TXNDC5-targeting aptamers, the Kd values, as the indicator of aptamer and target molecule interaction, of aptamer-3 and aptamer-7 are measured by q-PCR, and the results were fitted with nonlinear regression. The method of measuring the Kd values of aptamer-3 and aptamer-7 is illustrated as following.
(§2) Aptamer-3 and aptamer-7 are isolated and progressively diluted in series from 100 to 3.125 nM, aptamer-3 and aptamer-7 are folded in the binding buffer as the procedures mentioned above. Equal amounts of either mouse-MNPs or humane-MNPs are mixed with aptamer-3 and aptamer-7 and followed the MARAS and q-PCR procedure as described above to specifically bind to aptamer-3 and aptamer-7. The Kd values of aptamer-3 and aptamer-7 are measured by fitting the results of each Ct value from q-PCR and the concentrations in a nonlinear regression through PRISM 8 (Graphpad). Each result is performed in duplicate to reduce the errors.

[2] = molecular target: T2, TXNDC5 (wild type) (Homo sapiens, UniProt Q8NBS9 Q8NBS9:33-432); assay: inhibition; insulin reduction turbidity assay, 0.5 mM DTT, potassium phosphate, EDTA, pH 7; conditions: tags: Ni-column purified, baculovirus/insect cells, Sino Biological
Description: An insulin/assay buffer is prepared by adding 1.6 mM insulin (which is prepared by dissolving insulin in 0.1 N HCl) with the assay buffer consisted of 100 mM potassium phosphate and 0.2 mM EDTA (pH 7). The volume of each insulin/assay buffer is 15 μl, wherein the volume of insulin is 6 μl and the volume of assay buffer is 9 μl.
Each of the above mixtures of aptamers (Ap-3, Ap7 and Ap-11) with different concentrations and human wild type TXNDC5 is added with a corresponding insulin/assay buffer separately. That is, aptamer-3, aptamer-7 and aptamer-11 have seven experimental group samples (with different concentrations, 7.8125 μM, 15.625 μM, 31.25 μm, 62.5 μM, 125 μM, 250 μM and 500 μM) separately. An insulin/assay buffer which is not added with the above mixture of aptamers and human wild type TXNDC5 is prepared as the control group sample.

[3] = molecular target: T1, TXNDC5; assay: q-PCR of eluted aptamer; specific and strong binding to mouse TXNDC5; conditions: tags: Ni-column purified, baculovirus/insect cells, Sino Biological; single stem-loop (predicted)
Description: The 100 nM of aptamer-3, aptamer-7 and aptamer-11 are folded in the binding buffer via the procedures as mentioned above. 20 nM of Aptamer-3, aptamer-7 and aptamer-11 are taken individually and hybridized with positive-(mouse and human TXNDC5, 5 μl) and negative-(serum and catalytic-death TXNDC5, 5 μl) MNPs, and the hybridized aptamers-MNPs are processed according to the above MARAS procedures. Aptamer-3, aptamer-7 and aptamer-11 bound with MNPs are collected and eluted by heating to 95° C. for 5 min in 100 μl ddH₂O.
The amounts of aptamer-3, aptamer-7 and aptamer-11 are detected by q-PCR and the relative expression levels are utilized as outcomes. The process of detecting the amounts of aptamer-3, aptamer-7 and aptamer-11 by q-PCR is set forth as following. To measure the relative expression of aptamer-3, aptamer-7 and aptamer-11, the q-PCR is performed in 96-well plates with BioRad CFX Connect system. The fivefold-diluted eluted aptamer-3, aptamer-7 and aptamer-11 are individually dissolved in test tubes filled with 100 μl of RNase-free water. […]

[4] = molecular target: T2, TXNDC5 (wild type); assay: magnetic nanoparticle (MARAS) pulldown with q-PCR, nonlinear regression; conditions: tags: Ni-column purified, baculovirus/insect cells, Sino Biological; double stem-loop (predicted)
Description: as §1, §2

T2 sequence (Q8NBS9 33-432, one chain of several): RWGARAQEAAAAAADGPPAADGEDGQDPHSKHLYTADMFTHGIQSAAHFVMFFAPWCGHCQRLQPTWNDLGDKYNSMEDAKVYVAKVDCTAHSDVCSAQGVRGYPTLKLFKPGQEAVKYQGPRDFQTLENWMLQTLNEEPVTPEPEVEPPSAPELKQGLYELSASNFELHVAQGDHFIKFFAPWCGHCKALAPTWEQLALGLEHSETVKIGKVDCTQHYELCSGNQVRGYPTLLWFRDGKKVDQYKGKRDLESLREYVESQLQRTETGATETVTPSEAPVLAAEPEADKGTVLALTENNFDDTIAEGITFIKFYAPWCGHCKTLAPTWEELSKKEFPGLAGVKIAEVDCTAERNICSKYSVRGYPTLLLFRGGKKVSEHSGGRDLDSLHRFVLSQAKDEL
T1 sequence (Q91W90 34-417, one chain of several): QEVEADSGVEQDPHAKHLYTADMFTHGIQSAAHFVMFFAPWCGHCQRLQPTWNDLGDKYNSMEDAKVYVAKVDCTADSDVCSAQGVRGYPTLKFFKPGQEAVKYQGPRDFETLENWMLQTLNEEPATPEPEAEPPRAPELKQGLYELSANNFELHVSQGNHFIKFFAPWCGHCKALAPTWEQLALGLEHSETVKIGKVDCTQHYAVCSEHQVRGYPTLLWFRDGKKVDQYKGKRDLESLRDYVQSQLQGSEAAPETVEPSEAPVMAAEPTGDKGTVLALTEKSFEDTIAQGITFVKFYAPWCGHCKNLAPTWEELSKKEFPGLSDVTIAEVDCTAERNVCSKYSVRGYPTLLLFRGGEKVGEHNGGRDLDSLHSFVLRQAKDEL

| Binder | Kd [1] | IC50 ([2]; double stem-loop (predicted)) | IC50 ([2]; single stem-loop (predicted)) | binding result [3] | Kd [4] |
| --- | --- | --- | --- | --- | --- |
| AGCAGCACAGAGGTCAATGTAATCTTTATCTATCGGCGTGCTACCGTGAA (ssDNA) [Aptamer-3] | 0.0075 µM | 214 µM | – | – | – |
| AGCAGCACAGAGGTCTCTTATTACTCTCCCGTACCGCGTGCTACCGTGAA (ssDNA) [Aptamer-11] | – | – | 263 µM | binds | – |
| AGCAGCACAGAGGTCAGGAACCTTATGCCTATGTAGCGTGCTACCGTGAA (ssDNA) [Aptamer-7] | – | 241 µM | – | – | 0.0169 µM |
